Experimental data from the DeepSol protein solubility set.

Assay: soluble on expression in E. coli; label from the status in PepcDB or PDB records

Sequence | soluble on expression in E. coli
MHHHHHHSSGVDLGTENLYFQSMGKVKATPMTPEQAMKQYMQKLTAFEHHEIFSYPEIYFLGLNAKKRQGMTGGPNNGGYDDDQGSYVQVPHDHVAYRYEVLKVIGKGSFGQVVKAYDHKVHQHVALKMVRNEKRFHRQAAEEIRILEHLRKQDKDNTMNVIHMLENFTFRNHICMTFELLSMNLYELIKKNKFQGFSLPLVRKFAHSILQCLDALHKNRIIHCDLKPENILLKQQGRSGIKVIDFGSSCYEHQRVYTYIQSRFYRAPEVILGARYGMPIDMWSLGCILAELLTGYPLLPGEDEGDQLACMIELLGMPSQKLLDASKRAKNFVSSKGYPRYCTVTTLSDGSVVLNGGRSRRGKLRGPPESREWGNALKGCDDPLFLDFLKQCLEWDPAVRMTPGQALRHPWLRRRLPKPPTGEKTSVKR | soluble
MITIEKYSPERHEQTCELSVLEEQSQFTVADVGEMLTRLEPTELPHLILADDDVVGFFLFDAAYSEKYDFCPKNSLGVRALLVDHRHQGKGIAKQAIQQFADFAKHHYPEFDALYLTVNCRNIPAYQCYLKSGFEDTNELYHGGPVGPQHIMRQPL | not soluble
SVTGIGSGFSELDEYTAGFQPSDMIIIAARPSAGKTAFALALARNAAVNFNTPVLFFSLEMAEIQLALRLMCAEAYVESQLVRRGQISPEMMNKIINSMDALADAKLFIDDTPGISIMELTAKTRRMKQEHGIGMVVVDYLQLVTPVRDGRSNREQEIAQISRSLKALAKELNIPVIALAQLNRSVEQRSGDRRPQLSDL | not soluble
SKRAATLTDIKHIKQLDLSDHKSLEFARDIFLFSFYMRGMSFIDLAYLRKKDLNSGFVSYSRRKTGKKLIIRWEKQMQEIIDRYGDSETQYLLPIIEREDGTEHRQYRNKMLLVNRKLKKIAARAGLTTPLTMYVARHSWASIAKTKNISIGIISEAMGHDSETTTQIYLSSIQTNQIDNANRN | not soluble
MAHHHHHHMQNSVGDVINLISKSEIRYEGKLHSINTEENTVSLSNVRIYGTEGRKGGGVEEVPPTEQLFEFIVFRGSDIKDLTVFRDSSSPQARDPAIVEVHAPARGRGGRAAAAAPAASATAASSAATRGSRSFYDEAQPYSRGGGGGRRGGYGAGRYNNNNGGGSNNSNSNRNHRGGYGGRGGSGNYRRNYRDYHTGQDFKPADIGATEKFEGDFDFAKCREEFEKKKSEFEKAKEDAKSHAKAYDKSSFFDTISCDQKEKNNMNRAEMRKADTETFGPEMVSSMRGFRRGRGGRGRYQQR | not soluble
MGSDKIHHHHHHMKIDEFNKALDRGEISPLYYFHGDEPHLMERAVKRLMDSAVPPDFRDFNLDVFYGNECKGDEVASVAQTLPMFADRRMVLVKRAGDLSAAALEILASCVADPPPTTCLVFMGEKVDQRKKFFQEMKKKGELVECKRPYENQLGAFIREEAKGLGKRVEPAAAEMLVYLVGNNLGELSTQLEKVALYVGQRETISVEDVRGIVSDTKVESVFDLTNALGERNVVKALRSLATILRDGEAPLMLLAMIARHFRQLWRVRDLMAQKVPQQDISRLAGINPYFIKGVMAQARNFSASELKKVFEGLYATDLALKGGGAKRPTLTLEKLVMDVCGMGSR | not soluble
MGVPMGNGDCGAEFKCPPNFHKSNRVNGVWCIKVYPGNMTWWEAERECRCTIKGGHLSGIESNSEKRYVEEQTLSILDDKNIKNGAVWLGAYRRKECPSGKVSSDSICHDEKTFQFTDQHTCKTLIFQDWAANQPTNNAGDDCAVLLASTEASGSNSEASGKAAVKNCLHVQGTTPILSSVGFVCGVKAAQEGGNYGGYGGGDFMVIGAAKPKH | not soluble
MCRMFLCHGNFGEDAGRLFLALSETAKNDPLLVKAGSTWTSHSDGWGMAMLSDGSIRFEKHSRPVYEDSVPTIISSGTVLAHARKASPGEPLGNAFSHPFYAEDERYIVLLAHNGSLDKHRIANCDPKCYDRNTDSGLFLSYIMTFPGTVKERFERAIFESLKNGVFGKLTNLLVVALDKFTMIEERLYFSHNASRSEYGDLYLVNGRGWTGVFSSSILMSAHFPAYVSKSKVENDTVMDLP | not soluble
AIASERLYYFVIVGRDDRVLYDLLYPASLSELDWRTSSELSSPAERGDFEPHHFIPSIQVLLQFVAYSALDHIEEKYWLTSARSLKHIFRFRDWSASVQLTPNAATRFVLVHGASDDASRNVRAFLHAVYEAYVPHVVCNPFQEEDAPITSKRFHEVAKNLAKRYFSG | soluble
MVSPLKTRCCSPSSQQQASEAREIEQPSTVWELDFYSRPVYGKDNKRIWELIVVDESFLLCHVESVPNDMINSAELRKRVERLLEQVTVKPKVVKFSRMPMFNMISLALKDLGFEVKPSRRTYRLYHVLRDREANIYSKMPGYRSENTLSTSYLYSTERLPDALRGEKFAFCTADYSFLYELQSSDTIPYCDIFNTGDSILLEKELPGIIVYSERADSLASWTAGAEVSFIKFREEELELVLECGINSHYRLAKIAEDHRLVEEAKTFEQMKWHMKGFHFYAIQSLKETSGTSHIKGLWLLNDFMEQ | not soluble
MRNEEKHALRRELRRARAQMGHQGRLAAGQTINRLLKRYIKRGRKIGVYWPMGKELRLDGFVRAAQKRGAKLYLPYIEPRSRRMWFTPYPESGMERERIRGRAKLNVPQFAGRKIRVHGLSVLLVPLVGIDREGYRLGQAGGYYDATLAAMKYRLQAKTVGVGFACQFVDRLPREPHDLLLDGFVSEAGILCFLEHHHHHH | not soluble
VVCREASHAGSWYTASGPQLNAQLEGWLSQVQSTKRPARAIIAPHAGYTYCGSCAAHAYKQVDPSITRRIFILGPSHHVPLSRCALSSVDIYRTPLYDLRIDQKIYGELWKTGMFERMSLQTDEDEHSIEMHLPYTAKAMESHKDEFTIIPVLVGALSESKEQEFGKLFSKYLADPSNLFVVSSDFCHWGQRFRYSYYDESQGEIYRSIEHLDKMGMSIIEQLDPVSFSNYLKKYHNTICGRHPIGVLLNAITELQKNGMNMSFSFLNYAQSSQCRNWQDSSVSYAAGALTVH | soluble
MSLQRVQIMGAGALGSLVGALIQLAGYDVIFVARGKQLEALKKGLRVSGLKNAELKVYCTSQPEDADITFVTVKAYDTETVAKKLAEVDAGVVCSLQNGVGNEEILAKYCRKVLGGVTTYGANLKDYGHVVYAGEGYTYVGEMDGRVSGEAEMVAEVLRDAGMRAEAVNDIEFRIWAKAVVNAAINPITAICRVKNGEVVRNPHLWEVARAVADEGRQVMARMGYEFDAASEVRKVAEMTAENRSSMLQDLERGKRTEVEFINGAIVKKGEEFGIDCAVNRTLLNLVRGVESGEGHHHHHH | soluble
MSLRLKILIKLSGAGMSADSSEPFSNQFLETVIAQLKQLVPNYQIGIVIGGGNIMRGKSCSDYNITEIAGHHLGIMATVINGAFLKAKFDSHKLNSTLLSAVSCPSLATHIVSQATIDDAFKNHDIVIFAGGTGNPYFSTDTAVALRATQMQADIILIGKNGVDGVYTADPKKDKHAKFLASLTYAEAIKNDLQIMDITAFTMCKENNLKVIIFNINAEHAIIKALSKQGKYTLIEKEGHHHHHH | soluble
LRPVLPTQSAHDPPAVHLSNGPGQEPIAVMTFDLTKITKTSSSFEVRTWDPEGVIFYGDTNPKDDWFMLGLRDGRPEIQLHNHWAQLTVGAGPRLDDGRWHQVEVKMEGDSVLLEVDGEEVLRLRQVSGPLTSKRHPIMRIALGGLLFPASNLRLPLVPALDGCLRRDSWLDKQAEISASAPTSLRSCDVESNPGIFLPPGTQAE | soluble
MGSDKIHHHHHHMSNQPHKPYGTPEPTYSGNKRSLILAGGGMRVAYQAGAIRALIESGLCFNHADGTSGGTMNLAMLLSGLSPIEMCDRWQTLNVKDFVSFIPLEKYLKAWDLLSMGDADGIIDRVFPHLGIDISKINASEGMQGTFNVCNFTHKTNEVIPHDRLDLDLLVAGISLPIFMPPVQKGDYLYMDSVWIKDVNLMEAVRRGADELWVLWCIGNSSEYQTGIFNQYVHMMELSANGAFFEECDRINEINQRILQGETVYGHTQPIKLHLIKPAYPLPLDPDYYLGNIDGATLVDMGYADAKQYLQTMSPAGLPFQPDVTRMHNNLPGMTFRESMAGAFVLNETDPIQGAAKGKAHNSSLSLQLTINICDLKRFLGDTTFTASIAGNISFANFGEHIPFKRGVFNLFAHDHNPGYKYITYELAFEHGNQDYYLVGKKELHNDPGFDLWQDMTTIYTYLHQGTDNNSPIIGSGILTLDVGDVAKCVSGWRITNAKSLTEKTTLLAEFGSFFWGNIWETYQP | not soluble
